Measured values: patent publication US20210403595 (published 2021)
Substitutions are numbered along the chain they refer to.

T1: cynomolgus CD3 on T cells (cynomolgus monkey)
T1 chain: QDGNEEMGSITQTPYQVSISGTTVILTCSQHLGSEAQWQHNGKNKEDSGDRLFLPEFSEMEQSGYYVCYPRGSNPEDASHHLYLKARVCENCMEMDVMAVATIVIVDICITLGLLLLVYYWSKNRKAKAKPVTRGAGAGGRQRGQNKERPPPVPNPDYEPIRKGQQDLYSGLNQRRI

B1: BSPSMA/CD3-004 CD3 arm (antibody, V domains shown)
VH: EVQLVESGGGLVQPGRSLRLSCAASGFTFDDYSMHWVRQAPGKGLEWVSGISWNSGSIGYADSVKGRFTISRDNAKNSLYLQMNSLRAEDTALYYCAKDGSGYGKFYYYGMDVWGQGTTVTVSS
VL: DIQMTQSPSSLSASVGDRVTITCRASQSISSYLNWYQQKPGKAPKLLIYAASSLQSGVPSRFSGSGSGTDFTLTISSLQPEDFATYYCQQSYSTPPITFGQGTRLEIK
B2: BSPSMA/CD3-1800 CD3 arm (antibody, V domains shown)
VH: B1 VH with M111L
VL: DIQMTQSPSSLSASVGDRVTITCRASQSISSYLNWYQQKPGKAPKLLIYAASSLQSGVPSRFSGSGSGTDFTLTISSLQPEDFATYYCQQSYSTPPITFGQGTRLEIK
B3: BSPSMA/CD3-1300 CD3 arm (antibody, V domains shown)
VH: B1 VH with D99Y, M111L
VL: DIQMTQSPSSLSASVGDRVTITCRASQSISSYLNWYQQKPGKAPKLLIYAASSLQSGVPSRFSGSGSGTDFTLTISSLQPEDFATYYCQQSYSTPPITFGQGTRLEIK
B4: BSPSMA/CD3-1100 CD3 arm (antibody, V domains shown)
VH: B1 VH with I58K, D99Y, Y108H
VL: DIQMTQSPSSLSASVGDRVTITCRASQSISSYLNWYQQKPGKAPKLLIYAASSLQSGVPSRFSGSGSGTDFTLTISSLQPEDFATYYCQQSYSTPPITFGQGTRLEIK
B5: H1H5785B (antibody, V domains shown)
VH: QVQLVESGGGVVQPGRSLRLSCAASGLTFSTYVMHWVRQAPGKGLAWVAVIANDGSNKYYADSVKGRFTISRDNSKNTLYLQMNSLRPEDTAVYFCAKEGGTSGSYYYYGMDVWGQGTTVTVSS
VL: DIQMTQSPDSLAVSLGERATINCKSSQSLLFNSINKNYLAWYQQKPGQPPKLLLYWASTRESGIPDRFSGSGSGTDFTLTITSLQAEDVALYYCQQYYSIPWTFGQGTKVEIKR
B6: H1H5753B (antibody, V domains shown)
VH: QVQLVESGGGLVQPGGSLRLSCAASYFTFSSFAMNWVRQAPGQGLEWVSAISGRVSAISGSGGITYYADSVKGRFIISRDNSKNTLYLQMSGLRAEDTAVYYCAKGPYLTTVTPFDYWGQGTLVTVSS
VL: DIQLTQSPSSVSASVGDRVTITCRASQGISSWLAWYQQKPGKAPKLLIYAVSSLQNGVPSRFSGSGSGTDFTLTISSLQPEDFATYYCQQANSFPFTFGPGTKLEIKR
B7: H1H5756B (antibody, V domains shown)
VH: EVQLVESGGGVVQPGRSLRLSCTASGFPFSRYGMHWVRQAPGKGLEWVTFIWYDGSNKYYADSAKGRFTITRDNSKNTVYLQMDSLRADDTAVYYCVRDQAALYYFDSWGQGTLVTVSS
VL: B6 VL with L4M, S31R, Y49S, V51A, N56S, S77G, Q90K
B8: H1H5777P (antibody, V domains shown)
VH: EVQLVESGGGLVQPGRSLRLSCAASGFTFDDYAMHWVRQAPGKGLEWVSGISWNSGSRDYADSVKGRFTISRDNARNSLFLQMNSLSTEDTALYYCAKDKSGYGSYYYGMDVWGQGTTVTVSS
VL: EIVLTQSPGTLSLSPGDRATLSCRASQSIRSIYLAWYQQKPGQAPRLLIHGASTRATGIPDRFSGSGSGTDFTLTISRLEPEDFAVYYCQQRVSSPYTFGQGTKLEIK
B9: H1H5769P (antibody, V domains shown)
VH: B8 VH with A33T, A40V, V48I, R58M, L86V, S87R, Y106F
VL: B8 VL with I29V, R30S, V93A, S94H
B10: H1H5751P (antibody)
chain 1: EVQLVESGGDLVQPGRSLRLSCAASGFTFDDYTMHWVRQAPGKGLEWVSIISWNGNTIDYADSVKGRFTISRDNAKNSLYLQMNSLRAEDTALYYCAKDKSGYGHFYYYVLDVWGQGTTVTVSS
chain 2: DIQMTQSPSSLSASVGDRVTITCRASQSINNYLNWYQQKPGKAPKLLIYAASSLQSGVPSRFSGSGSGTDFTLTISSLQPEDFATYYSQQSYSFPWTFGQGTKVEIK
B11: H1H5796B (antibody, V domains shown)
VH: EVQLVESGAEVKKPGASVKVSCKTSGYTFTGYYMHWIRQAPGQGLEWMGWINPKSGGTNYAQKFQGRVTMTRDTSISTAYMELSRLRSDDMAVYYCARMGDGAVFDFWGQGTLVTVSS
VL: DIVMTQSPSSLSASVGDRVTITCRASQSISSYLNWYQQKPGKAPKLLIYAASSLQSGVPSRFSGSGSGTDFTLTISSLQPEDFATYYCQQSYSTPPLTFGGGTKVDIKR
B12: H1H5761P (antibody, V domains shown)
VH: QVQLVESGGGVVQPGRSLRLSCAASGFTFSSYGMHWVRQAPGKGLEWVAVISYDGSNKYYADSVKGRFTISRDYSKNTLYLQMNSLRAEDTAVFYCAKGAMVRGVPYNYYYGMDVWGQGTTVTVSS
VL: DIQMTQSPSSLSASVGDRVTITCRASQGIRNDLGWFQQKPGKAPKRLIYAASSLQSGVPSRFSGSGSGTEFTLTISSLQPEDFATYYCLQHNSYPYTFGQGTKLEIK
B13: H1H5764P (antibody, V domains shown)
VH: B12 VH with S30R, Y32F, S56N, N57Y, Y74N, F94H, Y109F
VL: B12 VL with G28V, F36Y, V58I
B14: H2M2704N (antibody, V domains shown)
VH: QVQLVESGGGVVQPGRSLRLSCGASGFTFRSYGMHWVRQTPGRGLEWVAMIYYDGNNKYYADSVRGRFTVSRDNSKNTLYLQMSSLRAEDTALYFCARGPGYNWLDPWGQGTLVTVSS
VL: EIVMTQSPATLSVSPGERATLSCRASQSISRNLAWYQXKPGQAPRLLIYGASTRATGIPARFSGSGSGTEFTLTISSLQSEDFAVYYCQQYNNRPLTFGGGTEVEIK
modifications: not fully specified; listing feature
B15: H2M2778N (antibody, V domains shown)
VH: B1 VH with G56R, G59D, A97V, G100N, K105R, F106Y, T121S
VL: KIVMTQSPATLSVSPGERATLSCRASQSVSGNLAWYQQKPGQAPRLLIYGASTRATSIPARFSGSGSGTEFTLTISSLQSEDFAVYFCQHYYNWPLTFGGGTKVEIR
B16: H2M3543N (antibody, V domains shown)
VH: B1 VH with S33T, G50D, I70V, A88G, G100M, G104A, K105H, F106Y, Y107G
VL: DIQMTQSPSSLSASVGDRVTITCRASQSIRNYLNWYQQKPGKVPKLLIYAASSLQSGVPSRFSGSGSGTDFTLTISSLQPEDFATYYCQQSYSNPPITFGQGTRLEIK
B17: H2M3548N (antibody, V domains shown)
VH: EVQLVESGGGLVQPGRSLRLSCAASGFKFADYAMHWVRQAPGKGLEWVSEISWNSGSIGYVDSVKGRFTISRDNAKNSLYLQMNSLRAEDTALYYCVKDKSGYGHYYIGMDVWGQGTTVIVSS
VL: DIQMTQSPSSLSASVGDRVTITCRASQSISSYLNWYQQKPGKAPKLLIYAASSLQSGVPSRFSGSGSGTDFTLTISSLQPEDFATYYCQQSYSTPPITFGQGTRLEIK
B18: H1H7258P (antibody, V domains shown)
VH: QVQLVESGGGLVQPGRSLRLSCAASGFTFDDYTMHWVRQGPGKGLEWVSDIGWNSNTIGYADSVKGRFTISRDNARNSLYLQMNSLRPEDTALYYCVKDKSGYGKFQYGLDVWGQGTTVTVSS
VL: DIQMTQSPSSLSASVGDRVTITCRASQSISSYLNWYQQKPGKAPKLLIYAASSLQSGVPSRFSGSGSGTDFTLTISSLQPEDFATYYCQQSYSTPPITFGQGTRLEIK
B19: H1H7241P (antibody, V domains shown)
VH: B18 VH with Q1E, D30A, T69A, R76K
VL: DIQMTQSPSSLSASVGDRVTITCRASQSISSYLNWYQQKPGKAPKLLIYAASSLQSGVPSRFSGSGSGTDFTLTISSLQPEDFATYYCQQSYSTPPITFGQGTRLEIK
B20: H2M2710N (antibody, V domains shown)
VH: B14 VH with G23A, Y32F, T40A, Y53F, N56K, V70I, Q82E, L93V
VL: B14 VL with I29V, X38Q, I58V, Y86F, Y87H
B21: H1M3549N (antibody, V domains shown)
VH: EVQLVESGGGLVQPGRSLRLSCVASGFPFADYTMHWVRQAPGKGLEWVSDISWNSGSIGYADSVKGRFTISRDNAKNSLYLQMNSLRTEDTALYYCAKDMSGYAHYFYYGMDVWGQGTTVTVSS
VL: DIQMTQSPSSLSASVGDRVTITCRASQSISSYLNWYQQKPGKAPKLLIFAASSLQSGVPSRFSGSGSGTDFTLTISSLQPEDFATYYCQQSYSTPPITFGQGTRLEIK
B22: H2M3541N (antibody, V domains shown)
VH: B21 VH with Q13R, V23A, P28T, A30D, S57T, T88P, F107Y
VL: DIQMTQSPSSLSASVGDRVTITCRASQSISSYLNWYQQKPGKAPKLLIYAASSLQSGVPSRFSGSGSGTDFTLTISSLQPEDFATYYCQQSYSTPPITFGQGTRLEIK

Biological target: T1, cynomolgus CD3 on T cells
Assay: FACS

binding result	Binder
no binding	B1
no binding	B2

Biological target: human CD3 on Jurkat cells (human)
Assay: FACS

Sequence of human CD3 on Jurkat cells (human) (chain, as listed by the source, chain 1 of 2): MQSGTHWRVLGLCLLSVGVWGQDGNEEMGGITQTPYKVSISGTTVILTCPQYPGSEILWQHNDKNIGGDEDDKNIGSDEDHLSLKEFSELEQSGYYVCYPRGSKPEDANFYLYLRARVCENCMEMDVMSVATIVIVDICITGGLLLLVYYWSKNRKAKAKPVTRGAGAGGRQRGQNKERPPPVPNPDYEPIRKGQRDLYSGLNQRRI
Sequence of human CD3 on Jurkat cells (human) (chain, as listed by the source, chain 2 of 2): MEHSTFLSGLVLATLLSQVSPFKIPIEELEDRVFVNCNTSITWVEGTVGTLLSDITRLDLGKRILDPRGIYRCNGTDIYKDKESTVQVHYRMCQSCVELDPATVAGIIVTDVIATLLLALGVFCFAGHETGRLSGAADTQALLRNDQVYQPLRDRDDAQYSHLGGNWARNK

EC50 [nM]	Binder
~1000	B1
126	B2
102	B3
18.3	B4

Biological target: human CD3 on Jurkat cells (human)
Assay: FACS
Remark: another data set of the same source

binding result	Binder
no binding	B5
no binding	B6
no binding	B7

Biological target: human CD3 epsilon/delta heterodimer, Fc-tagged (human)
Assay: SPR, 25C antigen-capture

Sequence of human CD3 epsilon/delta heterodimer, Fc-tagged (human) (chain, as listed by the source mutant, chain 1 of 2): as the sequence (chain, as listed by the source, chain 1 of 2) above
Sequence of human CD3 epsilon/delta heterodimer, Fc-tagged (human) (chain, as listed by the source mutant, chain 2 of 2): as the sequence (chain, as listed by the source, chain 2 of 2) above

Kd [nM]	Binder
3.52	B8
4.41	B9
3.42	B10
2.32	B11
53.4	B12
21	B13

Biological target: T1, cynomolgus CD3 on T cells
Assay: FACS
Remark: another data set of the same source

EC50 [nM]	Binder
2170	B3
890	B4

Biological target: human CD3 epsilon/delta heterodimer, Fc-tagged (human)
Assay: SPR, 37C

binding result	Binder
no binding	B1
no binding	B2

Biological target: human CD3 epsilon/delta heterodimer, Fc-tagged (human)
Assay: SPR, 25C antibody-capture

Kd [nM]	Binder
20	B14
8.9	B15
30	B16
130	B17

Biological target: human CD3 epsilon/delta heterodimer, Fc-tagged (human)
Assay: SPR, 37C
Remark: another data set of the same source

Kd [nM]	Binder
122	B3
11.1	B4

Biological target: human CD3 epsilon/delta heterodimer, Fc-tagged (human)
Assay: SPR, 25C antibody-capture
Remark: another data set of the same source

Kd [nM]	Binder
24	B18
22	B19

Biological target: human CD3 epsilon/delta heterodimer, Fc-tagged (human)
Assay: SPR, 25C antibody-capture
Remark: another data set of the same source

Kd [nM]	Binder
224	B8
121	B9
129	B10
60.5	B11
5160	B12

Biological target: human CD3 on Jurkat cells (human)
Assay: FACS
Remark: another data set of the same source

EC50 [nM]	Binder
0.71	B20
2.3	B21
3.7	B22
1.1	B17

Biological target: human CD3 on Jurkat cells (human)
Assay: FACS
Remark: another data set of the same source

EC50 [nM]	Binder
0.571	B8
4.1	B9
2.12	B10
9.82	B11
2.1	B12
0.88	B13
